Tests used:
[1] = system: Human Renal Epithelial Cells (HREpic); experiment: HREpic 3D-culture proliferation/viability (ATP quantification); type: cell-based; conditions: TNFα 10 ng/mL, 10 μg/mL antibody, 6 days, preliminary data
Experimental: (§1) Cells. Human Renal Epithelial Cells (HREpic) were purchased from ScienCell Research Laboratories and grown in Epithelial Cell Medium according to manufacturer's instructions.
H3L3 Treatment. For 2D-culture, cells were seeded in 24-well plates coated with Poly-L-Lysine at a cell density of 5.10^4 cells/well. After 24 hours, the cells were treated with TNFα 10 ng/mL and Mota (10 μg/mL) or H3L3 (10 μg/mL). After 3 days, the cells were again treated with TNFα and antibody for 3 more days. After 6 days of treatment in total, the cells were lysed to measure gene expression by qRT-PCR. For 3D-culture, cells were seeded in 96-well ultra-low attachment plates (Corning, Sigma Aldrich, France) at a cell density of 5×10^3 cells/well. The same treatment as described above was applied for 6 days. Cell viability was assessed by ATP quantification using CellTitreGlo (Promega) according to manufacturer's instructions.
Statistics. Data are presented as the mean±s.d. and were analyzed by the unpaired Student's t-test or the two-tailed Mann-Whitney test as indicated after determination of distribution by the Shapiro-Wilk normality test. All experiments were performed at least in triplicates for 2D-culture and quadruplicates for 3D-culture. Data are considered as significant at p<0.05. Statistical analyzes for in vitro experiments were performed with GraphPad Prism 6 software.

TGF-β signalling = experiment: TGF-β signaling reporter assay in A549 cells; type: cell-based; conditions: 50 μg/mL for 3 hours, TGF-β 10 ng/mL
Experimental: TGF-β Signaling Reporter Assay. A549 cells were transfected with TGF-β signalling reporter plasmid pGLA4.48[luc2P/SBE/Hygro] (Promega) using Fugene according to the manufacturer's instructions. Following transfection, the cells were supplemented with fresh medium containing control or CLDN1-specific mAb (50 μg/mL) for 3 hours at 37° C. Fresh medium was supplemented to the cells containing TGF-β (10 ng/mL) (Sigma) for 3 hours at 37° C. The plate was incubated for 15 minutes at room temperature followed by addition of ONE-Glo substrate (Promega) for 3 minutes at room temperature. Luminescence of the supernatants was read using a Berthold microplate reader.

[2] = biological target: T1, CLDN1 expressed on RPTEC/TERT1 cells (Homo sapiens, UniProt O95832); experiment: Flow cytometry binding study on RPTEC/TERT1 kidney cells
T1 construct: endogenous in cells; host or cells: RPTEC/TERT1
T1 sequence (O95832 1-211): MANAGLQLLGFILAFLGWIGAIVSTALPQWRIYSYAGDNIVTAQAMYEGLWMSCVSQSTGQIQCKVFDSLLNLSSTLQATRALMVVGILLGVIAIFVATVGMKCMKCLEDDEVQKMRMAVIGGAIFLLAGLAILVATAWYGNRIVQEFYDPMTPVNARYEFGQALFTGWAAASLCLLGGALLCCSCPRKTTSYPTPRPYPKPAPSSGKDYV
Experimental: (§2) Cell Lines. The kidney cancer cell line RPTEC/TERT1 and lung cancer cell line A549, both originally from ATCC, were obtained from IGBMC in a collaboration with Dr. Irwin Davidson and Dr. Izabella Sumara, respectively. Both cell lines were cultured according to provider's instructions: the RPTEC/TERT1 kidney cancer cells were grown in ATCC-formulated DMEM:F12 Medium supplemented with hTERT RPTEC Growth Kit and 0.1 mg/mL G418. The A549 lung cancer cells were grown in ATCC-formulated F-12K Medium supplemented with 10% fetal bovine serum.
(§3) Binding Studies. Cells were de-attached using a solution of EDTA (4 mM) and re-suspended in PBS containing 1% FBS at 4° C. Then, 150,000 cells were incubated with increasing concentrations of the humanized H3L3 CLDN1-specific mAb (see WO/2017/162678) and the binding signals were read by flow cytometry after incubation with PE-labelled anti-human using a dilution of 1:100 and analyzed with Cytoflex and FlowJo V10. Two washes with PBS containing 1% FBS were performed after every antibody incubation. A binding curve for each cell line was built using the PE median fluorescence intensity (MFI) and the Kd of the interaction was calculated by applying the Michaelis-Menten mathematical model in R 3.5.1.

[3] = biological target: T2, CLDN1 expressed on A549 cells (Homo sapiens, UniProt O95832); experiment: Flow cytometry binding study on A549 lung cells; design: unit not given here
T2 construct: endogenous in cells; host or cells: A549
T2 sequence (O95832 1-211): T1 sequence (O95832 1-211)
Experimental: as §2, §3

[4] = biological target: T3, CLDN1 on HREpic (PECs model) (Homo sapiens, UniProt O95832); experiment: Flow cytometry binding on Human Renal Epithelial Cells (HREpic); conditions: 10 μg/mL, 24 hours after TNFα 10 ng/mL
T3 construct: Human Renal Epithelial Cells (HREpic), which are primary cell isolated from human kidney; host or cells: HREpic (Human Renal Epithelial Cells), TNFα-treated
T3 sequence (O95832 1-211): T1 sequence (O95832 1-211)
Experimental: as §1
Flow cytometry. H3L3 binding and expression of human CLDN1 in HREpic was analyzed by flow cytometry 24 hours after TNFα treatment (10 ng/mL). Briefly, 200,000 cells per conditions were stained using H3L3 (10 μg/mL) or Mota (10 μg/mL) used as negative control. Primary antibodies were detected using an Alexa fluor 647-conjugated human-specific secondary antibody. Data were acquired using Cytoflex B2R2V0 (Beckman Coulter) and analyzed using CytExpert 2.1 and FlowJo v10. CLDN1 expression is shown as the difference of the mean fluorescence intensities of cells stained with H3L3 and cells stained with Mota.

[5] = system: Adriamycin-induced nephropathy; experiment: Adriamycin-induced nephropathy model; type: in vivo, BALB/c mice; conditions: 250 μg/mouse i.p. twice weekly, 27 days; versus control group and valproic acid group
Experimental: The Adriamycin-induced nephropathy (ADR) model is a well-characterized disease model for chronic kidney disease and mirrors human kidney disease caused by primary focal segmental glomerulosclerosis (FSGS). The Adriamycin-induced nephropathy is a mouse model the mimics human FSGS (Focal Segmental Glomerulosclerosis). An efficacy study was performed at SMC lab (Tokyo, Japan) in accordance with local standards of ethics and animal care. Induction of Adriamycin-induced nephropathy model started on Day 0, when mice were intravenously administered adriamycin (doxorubicin hydrochloride, Wako Pure Chemical Industries, Ltd., Japan) in 0.9% saline at a dose of 13 mg/kg, in a volume of 10 mL/kg.
Groups of eight Adriamycin-induced nephropathic male BALB/c mice were administered either vehicle [saline], anti-CLDNA 1 mAb H3L3 (250 μg/mouse, twice weekly) intraperitoneally, or VPA (=valproic acid, provided at 0.4% in the drinking water) as a positive control for 27 days. Serum creatinine and BUN (blood urea nitrogen) was measured by FUJI DRI-CHEM 7000 (Fujifilm Corporation, Japan).

B1: H3L3: humanized anti-Claudin-1 monoclonal antibody, two VH of SEQ ID NO: 3 and two VL of SEQ ID NO: 6 (antibody, V domains shown)
VH: QVQLVESGGGVVQPGRSLRLSCLGSGFSFSSYGMNWVRQAPGKGLEWVASISPSGSYFYYADSVKGRFTISRDNSKNTLYLQMTSLRAEDTAIYYCARLPGFNPPFDHWGQGTLVTVSS
VL: DIQMTQSPSSLSASVGDRVTITCKASQNVGGNVDWYQWKPGKAPKLLIYGASNRYTGVPDRFRGSGSGTDFTLTISSLQPEDVATYYCLQYKNNPWTFGGGTKVEIK
modifications: humanized variable heavy chain H3; humanized variable light chain L3
- cell proliferation/viability [1]: slight decrease
- TGF-β reporter activity (TGF-β signalling): significant reduction
- concentration saturating the epitope [2]: 50 µg/mL
- concentration saturating the epitope [3]: 20
- binding to PECs CLDN1 [4]: binds to PECs CLDN1
- serum BUN [5]: non-significant but pronounced reduction
- serum creatinine [5]: non-significant but pronounced reduction

Reference: patent US20230138047A1, “ANTI-CLAUDIN-1 MONOCLONAL ANTIBODIES FOR THE PREVENTION AND TREATMENT OF FIBROTIC DISEASES” (Université de Strasbourg, priority 2019, published 2023)
